The Immune Epitope Database (IEDB)

Columns and labels:
HLA-B*53:01 = experiment: IEDB peptide-MHC binding, purified MHC/competitive/fluorescence; ≥ and ≤ were set here for values at or beyond the usual limits of such assays; details: source organism: Human immunodeficiency virus 1
HLA-B*58:01 [1] = experiment: IEDB peptide-MHC binding, cellular MHC/competitive/fluorescence; ≥ and ≤ were set here for values at or beyond the usual limits of such assays; details: source organism: Human herpesvirus 4 strain B95-8
HLA-B*18:01 = experiment: IEDB peptide-MHC binding, purified MHC/direct/fluorescence; filed as Kd, often an IC50 or EC50 that approximates it; ≥ and ≤ were set here for values at or beyond the usual limits of such assays; details: source organism: Influenza A virus (A/chicken/Thailand/LV1NF/2004(H5N1))
HLA-B*44:02 = experiment: as above; details: source organism: Influenza A virus (A/chicken/Thailand/LV1NF/2004(H5N1))
HLA-B*15:17 [2] = experiment: as above; details: source organism: Influenza A virus (A/chicken/Thailand/LV1NF/2004(H5N1))
HLA-B*57:01 = experiment: as above
HLA-B*15:01 = experiment: as above
HLA-B*40:01 = experiment: as above
HLA-A*11:01 [3] = experiment: as above; details: source organism: Influenza A virus (A/chicken/Thailand/LV1NF/2004(H5N1))
HLA-B*39:01 = experiment: as above
HLA-A*02:01 = experiment: as above
HLA-A*69:01 = experiment: as above
HLA-B*27:05 = experiment: as above
HLA-B*07:02 = experiment: as above
HLA-A*03:01 = experiment: as above
HLA-B*48:01 = experiment: as above
HLA-A*31:01 [4] = experiment: as above; details: source organism: Influenza A virus (A/chicken/Thailand/LV1NF/2004(H5N1))
HLA-A*01:01 = experiment: as above
HLA-B*58:01 [5] = experiment: as above
HLA-A*26:03 = experiment: IEDB peptide-MHC binding, purified MHC/competitive/fluorescence; filed as Kd, often an IC50 or EC50 that approximates it; ≥ and ≤ were set here for values at or beyond the usual limits of such assays; details: source organism: Influenza A virus
HLA-B*38:01 = experiment: IEDB peptide-MHC binding, purified MHC/direct/fluorescence; filed as Kd, often an IC50 or EC50 that approximates it; ≥ and ≤ were set here for values at or beyond the usual limits of such assays; details: source organism: Bacillus cereus H3081.97
HLA-A*26:01 = experiment: as above; details: source organism: Bacillus cereus H3081.97
HLA-B*08:02 = experiment: as above; details: source organism: Bacillus cereus H3081.97
HLA-B*51:01 = experiment: as above; details: source organism: Bacillus cereus H3081.97
HLA-B*15:09 = experiment: as above; details: source organism: Bacillus cereus H3081.97
HLA-A*26:02 = experiment: as above; details: source organism: Bacillus cereus H3081.97
HLA-B*15:17 [6] = experiment: IEDB peptide-MHC binding, purified MHC/competitive/fluorescence; filed as Kd, often an IC50 or EC50 that approximates it; ≥ and ≤ were set here for values at or beyond the usual limits of such assays; details: source organism: Bacillus thuringiensis serovar sotto str. T04001
HLA-A*11:01 [7] = experiment: as above; details: source organism: Bacillus thuringiensis serovar sotto str. T04001
HLA-B*08:01 = experiment: as above; details: source organism: Bacillus thuringiensis serovar sotto str. T04001
HLA-A*30:01 = experiment: as above; details: source organism: Bacillus thuringiensis serovar sotto str. T04001
HLA-A*31:01 [8] = experiment: as above; details: source organism: Bacillus thuringiensis serovar sotto str. T04001
[9] = source organism: Influenza A virus (A/chicken/Thailand/LV1NF/2004(H5N1))
[10] = source organism: Bacillus anthracis

WPVKVIHT was tested. Which IC50 (HLA-B*53:01) did it give?
Its IC50 is ≥ 20 µM.

ATLNICNFW was tested. Which IC50 (HLA-B*58:01 [1]) did it give?
The IC50 was 5 µM.

How did the Kd (HLA-B*18:01) turn out when EMIWDPNGW was run?
The Kd was 2 µM.

And the Kd (HLA-B*44:02)?
Its Kd is ≥ 20 µM.

And the Kd (HLA-B*15:17 [2])?
Its Kd is ≥ 20 µM.

What about the Kd (HLA-B*57:01; [9]) of the same sequence?
The Kd was ≥ 20 µM.

What about the Kd (HLA-B*15:01; [9]) of the same sequence?
Its Kd is ≥ 20 µM.

And the Kd (HLA-B*40:01; [9])?
Its Kd is ≥ 20 µM.

And the Kd (HLA-A*11:01 [3])?
The Kd was ≥ 20 µM.

And the Kd (HLA-B*39:01; source organism: Influenza A virus (A/chicken/Hebei/706/2005(H5N1)))?
Its Kd is ≥ 20 µM.

And the Kd (HLA-A*02:01; [9])?
The Kd was ≥ 20 µM.

What about the Kd (HLA-A*69:01; [9]) of the same sequence?
Its Kd is ≥ 20 µM.

What about the Kd (HLA-B*27:05; [9]) of the same sequence?
Its Kd is ≥ 20 µM.

What about the Kd (HLA-B*07:02; [9]) of the same sequence?
The Kd was ≥ 20 µM.

What about the Kd (HLA-A*03:01; [9]) of the same sequence?
The Kd was ≥ 20 µM.

And the Kd (HLA-B*48:01; [9])?
Its Kd is ≥ 20 µM.

And the Kd (HLA-A*31:01 [4])?
Its Kd is ≥ 20 µM.

What about the Kd (HLA-A*01:01; [9]) of the same sequence?
Its Kd is ≥ 20 µM.

And the Kd (HLA-B*58:01 [5]; source organism: Influenza A virus (A/Puerto Rico/8/34/Mount Sinai(H1N1)))?
The Kd was 0.185 µM.

And the Kd (HLA-A*26:03)?
The Kd was ≥ 20 µM.

How did the Kd (HLA-B*38:01) turn out when TVIRFWHAM was run?
The Kd was ≥ 20 µM.

What about the Kd (HLA-A*26:01) of the same sequence?
Its Kd is 0.012 µM.

And the Kd (HLA-B*57:01; [10])?
Its Kd is 0.593 µM.

What about the Kd (HLA-B*15:01; [10]) of the same sequence?
The Kd was 0.0207 µM.

And the Kd (HLA-B*40:01; [10])?
Its Kd is ≥ 20 µM.

What about the Kd (HLA-B*39:01; source organism: Bacillus cereus H3081.97) of the same sequence?
The Kd was 0.05 µM.

And the Kd (HLA-A*02:01; [10])?
The Kd was ≥ 20 µM.

And the Kd (HLA-A*69:01; [10])?
The Kd was ≤ 0.001 µM.

And the Kd (HLA-B*27:05; [10])?
Its Kd is ≥ 20 µM.

And the Kd (HLA-B*07:02; [10])?
Its Kd is 1.81 µM.

What about the Kd (HLA-B*08:02) of the same sequence?
Its Kd is ≥ 20 µM.

And the Kd (HLA-A*03:01; [10])?
The Kd was ≥ 20 µM.

What about the Kd (HLA-B*48:01; [10]) of the same sequence?
Its Kd is ≥ 20 µM.

And the Kd (HLA-B*51:01)?
The Kd was ≥ 20 µM.

And the Kd (HLA-B*15:09)?
The Kd was 6.04 µM.

And the Kd (HLA-A*01:01; [10])?
The Kd was ≥ 20 µM.

What about the Kd (HLA-B*58:01 [5]; [10]) of the same sequence?
Its Kd is 0.074 µM.

What about the Kd (HLA-A*26:02) of the same sequence?
The Kd was ≤ 0.001 µM.

What about the Kd (HLA-B*15:17 [6]) of the same sequence?
The Kd was 0.293 µM.

And the Kd (HLA-A*11:01 [7])?
The Kd was 0.0979 µM.

And the Kd (HLA-B*08:01)?
The Kd was ≥ 20 µM.

And the Kd (HLA-A*30:01)?
The Kd was 0.168 µM.

And the Kd (HLA-A*31:01 [8])?
Its Kd is 0.0344 µM.
